Read-outs that look alike come from different tables or passages of the source.

As usually defined, the stoichiometry N is the number of molecules, sites or subunits per partner or assembly.

In one data set the target is Asp105 (UniProt position 105, GLVVYDYQQLL). Nature of the data set: CD spectroscopy. The settings on record: 25 °C; Free folded domain, 4.2-10 µmol/L protein.
Data set [1] addresses rh wildtype Bri2 BRICHOS (human) (UniProt Q9Y287). The experiment in a line: SEC. On the technique in general: In gel filtration, larger molecules generally elute earlier.
For data set [2] the target is unchanged. Nature of the data set: SEC. This is another data set of the same source.

As for “Prosurfactant protein C (proSP-C) BRICHOS domain, wild type (Homo sapiens)”, the pKa entry in the data set with Asp105 is recorded as “about 6.1”. On to “rh wildtype Bri2 BRICHOS (from UniProt Q9Y287 113-231) (domain or fragment)”, for which the stoichiometry N in data set [1] and in data set [2] was 2 each time.
